In US20250215105A1 (published 2025):

T1: human CD39 recombinant antigen (UniProt P49961 38-478)
T1 chain: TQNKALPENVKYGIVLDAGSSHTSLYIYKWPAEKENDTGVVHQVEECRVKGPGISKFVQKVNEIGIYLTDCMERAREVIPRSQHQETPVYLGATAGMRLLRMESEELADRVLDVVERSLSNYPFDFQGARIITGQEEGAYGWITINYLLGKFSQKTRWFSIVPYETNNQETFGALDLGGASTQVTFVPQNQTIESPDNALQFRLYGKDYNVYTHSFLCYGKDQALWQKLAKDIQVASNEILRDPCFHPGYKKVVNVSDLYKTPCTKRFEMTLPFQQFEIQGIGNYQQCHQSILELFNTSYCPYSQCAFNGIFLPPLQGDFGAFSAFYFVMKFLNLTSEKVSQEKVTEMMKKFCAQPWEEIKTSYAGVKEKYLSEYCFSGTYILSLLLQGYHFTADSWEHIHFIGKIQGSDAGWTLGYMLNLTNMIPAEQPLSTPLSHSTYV

B1: 6-3m1 (antibody, V domains shown)
VH: QVQLKQSGAELVKPGASVKLSCTASGFSIKDTYVHWVKQRPEQGLEWIGKIDPANVNTKFDPKFQGKATITADTSSNTAYLQLSSLTSEDTAVYYCALYGYDDDAYYFDYWGQGTTLTVSS
VL: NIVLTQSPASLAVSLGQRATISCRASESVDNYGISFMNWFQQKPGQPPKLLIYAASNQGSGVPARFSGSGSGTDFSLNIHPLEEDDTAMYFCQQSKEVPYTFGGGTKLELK
B2: T-31414h4 (antibody, V domains shown)
VH: QVQLVQSGAEVKKPGASVKVSCKASGYTFKSYEMHWVRQAPGQGLEWMGRINPSVGSTWYAQKFQGRVIMIRDTSTSTVYMELSSLRSEDTAVYYCARGKREGGTEYLRNWGQGTLVTVSS
VL: EIVLIQSPGILSLSPGERATLSCRASQSVSSSYLAWYQQKPGQAPRLLIYGASSRATGIPDRFSGSGSGTDFTLTISRLEPEDFAVYYCQQYHSYITFGGGTKVEIK
B3: 23-7m1 (antibody, V domains shown)
VH: EVQLQQSGPELEKPGASVKISCKVSGYSFTDYNLNWVKQYNGKNLEWIGNIDPYSGGTRYNQKFKGKATLTIDQSSSTAYMHLKSLTSEDSAVYYCGLYGYDDDANYFDDWGQGTTLTVSS
VL: EIVLTQSPAIMSPSPGEKVTIACSASSSVSYMHWFQQKPGTSPKLWIYATSNLASGVPARFSGSGSGTSYSLTISRMEAEDVATYYCQQRSSYPLTFGAGTKLELK
B4: I-394h4 (antibody, V domains shown)
VH: EVQLQQSGPELVKPGASVKMSCKASGYTFTDYNMHWVKQSHGRTLEWIGYIVPLNGGSTFNQKFKGRATLTVNTSSRTAYMELRSLTSEDSAAYYCARGGTRFAYWGQGTLVTVSA
VL: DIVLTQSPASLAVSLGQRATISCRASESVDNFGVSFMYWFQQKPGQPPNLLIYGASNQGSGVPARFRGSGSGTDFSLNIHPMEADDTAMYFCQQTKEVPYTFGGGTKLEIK
B5: T86_sc (antibody, V domains shown)
VH: QIQLVQSGPELKKPGETVKISCEASGYTFINYGMNWVKQAPGKGLKWMGWINTYTGEPTYADDFKGRFAFSLETSANTAYLQINNLKNEDTATYFCARKGYYGYPNYYAMDYWGQGTSVTVSS
VL: DIVMTQSQKFMSTSVGDRVSITCKASQNVGTAVAWYQQKPGQSPKLLIYSASNRYTGVPDRFTGSGSGTDFTLTISNMQSEDLADYFCQQYSSYPITFGTGTKLEIK
B6: Tre_291_sc (antibody, V domains shown)
VH: QVQLKQSGPGLVQPSQSLSITCTVSGFSLTSYGVHWVRQSPGKGLEWLGVIWRRGSTDYNAAFMSRLSITKDTSKSQVFFKMNSLQTDDTAIYYCAGVRGDAMDYWGQGTSVTVSS
VL: DIVMTQSHKSMSTSVGDRVSVTCKASQNVGTNVAWYQQKPGQSPKALIYSASYRYSGVPDRFTGSGSGTDFTLTISNVQSEDLAEYFCQQYNSYPLTFGGGTKLEIK
B7: I67_sc (antibody, V domains shown)
VH: DVQLQESGPSLVQPSQSLSINCTVSGFSLSSYGVHWVRQSPGKGLEWLGVIWRRGSTDYNAAFMSRLSITKDNSKSQVFFKMNRLQADDTATYYCAKGISTATSWFAYWGQGTLVTVSA
VL: DIVMTQSHKFMSTSVGDRVSVTCKASQNVGTNVAWYQQKPGQSPKALIYSASYRYSGVPDRFTGSGSGTDFTLTISNVQSEDLAEYFCQQYNSYPLTFGAGTKLELK
B8: HuP4_11_sc (antibody, V domains shown)
VH: EVQLVESGGALVQPGRSLRLSCAVSGFTLSNYGVHWVRQAPGKGLEWVAVILRRGSTDYNAAFMSRFTISKDNSKNTVYLQMNSLRADDTAVYYCAKTAVVAGDYFDYWGQGTTVTVSS
VL: DIVMTQSQKFMSTSVGDRVSITCKASQNVGTNVAWYQQKPGQSPKLLIYSASYRYSGVPDRFTGSGSGTDFTLTISNMQSEDLADYFCQQYNSYPLTFGGGTKLEIK
B9: mAnE67_sc (antibody, V domains shown)
VH: EVQLVESGGGLVKPGGSRKLSCAASGFTFSDYGMHWVRQAPEKGLEWVAYISSGSSIIYYADTVKGRFTISRDNAKNTLFLQMTGLRSEDTAMYYCARKDYPYAMDYWGQGTSLAVSS
VL: DIVMTQSHKSMSTSVGDRVSVTCKASQNVGTNVAWYQQKPGQSPKALIYSASYRYSGVPDRFTGSGSGTDFTLTISNVQSEDLAEYFCQQYNSYPLTFGGGTKLEIK
B10: HuP4_41_sc (antibody, V domains shown)
VH: QVQLVESGGGVVQPGGSLRLSCVVSGFTLTNYGVHWVRQAPGKGLEWLAVILRRGSTDYNAAFMSRLAISKDNSKNTVYLELNSLRLDDTAVYYCAKTAVVAGDYFDYWGQGTTVTVSS
VL: DIVMTQSQKFMSTSVGDRVSITCKASQNVGTNVAWYQQKPGQSPKLLIYSASYRYSGVPDRFTGSGSGTDFTLTISNMQSEDLADYFCQQYNSYPLTFGGGTKLEIK
B11: HuP4_51_sc (antibody, V domains shown)
VH: QVQLVESGGGVVQPGGSLRLSCVVSGFSLTNYGVHWVRQAPGKGLEWLGVILRRGSTDYNAAFMSRLAISKDNSKNTVYLELNSLRLDDTAVYYCAKTAVVAGDYFDYWGQGTTVTVSS
VL: DIVMTQSQKFMSTSVGDRVSITCKASQNVGTNVAWYQQKPGQSPKLLIYSASYRYSGVPDRFTGSGSGTDFTLTISNMQSEDLADYFCQQYNSYPLTFGGGTKLEIK
B12: P4_sc (Fc fusion)
VH: QVQLKESGPSLVQPSQSLSITCTVSGFSLTNYGVHWVRQSPGKGLEWLGVILRRGSTDYNAAFMSRLSITKDNSKSQVFFKMNSLQADDTAIYYCAKTAVVAGDYFDYWGQGTTLTVSS
VL: DIVMTQSHKFMSTSVGDRVSVTCKASQNVGTNVAWYQQKPGQSPKALIYSASYRYSGVPDRFTGSGSGTDFTLTISNVQSEDLAEYFCQQYNSYPLTFGTGTKLEIK
B13: HuP4_IB_sc (Fc fusion)
VH: QVQLLESGPELVKPSATLSITCTVSGFSLTNYGVHWIRQAPGKGLEWLGVILRRGSTDYNAAFMSRFTISKDNSKNQVYFKLRSVTAEDTAVYYCAKTAVVAGDYFDYWGQGTMVTVSS
VL: DIQMTQSHSTLSLSVGDRVTITCKASQNVGTNVAWYQQKPGQPPKALIYSASYRYSGVPSRFSGSGSGTDFTLTISSVQAEDVAVYYCQQYNSYPLTFGPGTKLEIK

Biological target: T1, human CD39 recombinant antigen
Test: SPR

Compared with B1, B2 is 25-fold higher in Kd: 0.399 nM for the first, 9.83 nM for the second. The first binds more tightly here.

Compared with B3, B4 is 1.7-fold higher in Kd: 0.573 nM for the first, 0.956 nM for the second. The first binds more tightly here.

Biological target: T1, human CD39 recombinant antigen
Test: SPR
Remark: another data set of the same source

Compared with B5, B6 is 1.9-fold lower in Kd: 4.28 nM for the first, 2.22 nM for the second.

Compared with B7, B8 is 4.4-fold lower in Kd: 1.65 nM for the first, 0.377 nM for the second.

First: B9
Second: B10
The Kd of the first is 45-fold higher: 4.75 nM for the first, 0.106 nM for the second.

B11 and B12 are within 1.5-fold of each other in Kd: 0.369 nM for the first, 0.307 nM for the second.

Work on B13 yielded a Kd of 0.396 nM.
